Source: patent publication US20230037911A1 (SHANGHAI HENLIUS BIOTECH, published 2023)

T1: recombinant ECD of mouse FcγRIV (mouse, UniProt A0A0B4J1G0 21-203)
T1 sequence: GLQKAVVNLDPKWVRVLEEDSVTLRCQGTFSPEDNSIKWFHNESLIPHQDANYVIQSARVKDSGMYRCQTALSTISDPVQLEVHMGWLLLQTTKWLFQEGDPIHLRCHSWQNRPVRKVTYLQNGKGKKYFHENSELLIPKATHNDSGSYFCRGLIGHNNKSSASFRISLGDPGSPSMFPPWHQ

T2: recombinant ECD of human FcγRIIB (human, UniProt P31994 43-217)
T2 construct: extracellular domain
T2 sequence (looked up): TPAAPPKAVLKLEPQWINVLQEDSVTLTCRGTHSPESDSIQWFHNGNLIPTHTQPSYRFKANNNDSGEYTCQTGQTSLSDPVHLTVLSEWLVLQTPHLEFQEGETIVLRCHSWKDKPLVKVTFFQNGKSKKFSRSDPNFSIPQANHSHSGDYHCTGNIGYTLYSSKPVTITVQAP

T3: human TIGIT stably expressed on cells (Jurkat; 293T) (human, UniProt Q495A1 22-244)
T3 sequence: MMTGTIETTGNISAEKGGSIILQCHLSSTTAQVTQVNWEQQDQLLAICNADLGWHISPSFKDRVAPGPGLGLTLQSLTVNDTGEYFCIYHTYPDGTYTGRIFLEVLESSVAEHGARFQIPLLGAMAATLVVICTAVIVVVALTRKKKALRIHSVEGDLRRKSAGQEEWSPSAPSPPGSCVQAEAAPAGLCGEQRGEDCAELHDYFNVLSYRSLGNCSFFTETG

B1: 2A3-LT-Fc VLPLL (Fc mutations L235V, F243L, R292P, Y300L and P396L) (Fc fusion)
chain: QVQLVESGGGVVQPGRSLRLSCAASGGSFSSYPMGWFRQAPGKERESVAAISSDLRFTYYADSVKGRFTISRDNSKNTLYLQMNSLRAEDTAVYYCAARTSGVGYYSRAQWYDYWGQGTLVTVSSEPKSCDKTHTCPPCPAPELVGGPSVFLLPPKPKDTLMISRTPEVTCVVVDVSHEDPEVKFNWYVDGVEVHNAKTKPPEEQYNSTLRVVSVLTVLHQDWLNGKEYKCKVSNKALPAPIEKTISKAKGQPREPQVYTLPPSREEMTKNQVSLTCLVKGFYPSDIAVEWESNGQPENNYKTTPLVLDSDGSFFLYSKLTVDKSRWQQGNVFSCSVMHEALHNHYTQKSLSLSPGK
notes: also called VLPLL mutant; VPVLL (as printed once)
B2: 1G1-chimeric (llama VHH of 1G1 with human IgG1 CH2 and CH3 domains), bivalent (Fc fusion)
chain: QVQLVESGGGLVQAGDSLRLSCVASGPSFSSYPMGWFRQGPGKERESVAAISSDGRFTYYAASVKGRFTISKDNAKSAAFLQMNSLKPEDTAVYYCAARDSGSGYYSRAQWYDYWGQGTLVTVSS
notes: also called 1G1 chimeric clone; not shown: human IgG1 CH2 and CH3 domains
B3: 1C12-chimeric (llama VHH of 1C12 with human IgG1 CH2 and CH3 domains), bivalent (Fc fusion)
chain: QVQLVESGGGLVQTGDSLRLSCAASSRIFSRYGMGWFRQAPGKEREFVAAISWNGASTTYTDSVKGRFTISRDSAENTTYLQINSLRPEDTAVYYCAADPWGAVKLGTAEYEYWGQGTQVTVSS
notes: also called 1C12 chimeric parental clone; not shown: human IgG1 CH2 and CH3 domains

Assays:
[1] = target: T1, recombinant ECD of mouse FcγRIV; test: Octet (ForteBio) biolayer interferometry; sensor loaded with recombinant ECD of mouse FcγRIV; antibody at 5 concentrations (not given)
Description: (§1) Y axis represents association, dissociation & Rmax. X axis represents time in second.

[2] = target: T2, recombinant ECD of human FcγRIIB; test: Octet (ForteBio) biolayer interferometry; sensor loaded with recombinant ECD of human FcγRIIB; antibody at 5 concentrations (not given)
Description: as §1

[3] = target: T4, recombinant ECD of human FcγRIIIA (human, UniProt P08637 17-208); test: Octet (ForteBio) biolayer interferometry; sensor loaded with recombinant ECD of human FcγRIIIA; antibody at 5 concentrations (not given)
T4 construct: extracellular domain
T4 sequence (P08637 17-208): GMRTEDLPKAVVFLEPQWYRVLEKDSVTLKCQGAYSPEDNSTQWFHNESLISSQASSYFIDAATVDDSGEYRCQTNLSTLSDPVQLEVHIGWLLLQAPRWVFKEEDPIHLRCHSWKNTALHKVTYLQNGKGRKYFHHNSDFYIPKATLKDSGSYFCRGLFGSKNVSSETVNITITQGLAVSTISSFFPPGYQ
Description: as §1

[4] = target: T3, human TIGIT stably expressed on cells …; test: cell-based or functional assay
[5] = target: T3, human TIGIT stably expressed on cells …; test: flow cytometry, whole cell binding on h-TIGIT transfected Jurkat cells; anti-human IgG Fc AlexaFluor488 secondary
Experimental: The binding affinities of the humanized bivalent antibodies to human TIGIT were determined by whole cell binding to h-TIGIT stably expressed on Jurkat cells. Briefly, antibodies were incubated with h-TIGIT transfected Jurkat cells (0.2×10⁶/well in 100 μl) for 30 min in FACS buffer. The cells were washed once, then incubated with anti-human IgG Fc AlexaFluor488 (1:500).

[6] = target: T3, human TIGIT stably expressed on cells …; test: flow cytometry, whole cell binding on Jurkat cells stably expressing human TIGIT; Alexa Fluor 488 anti-human IgG Fc secondary
Description: FIGS. 1A-1C depict whole cell binding of representative VHH bivalent antibodies to human TIGIT determined by flowcytometry assays. […] Y axis represents Mean Fluorescence Intensity of AlexaFlour 488. X axis represents antibody concentrations in nanomolar. […] FIG. 1C is a schematic of the structure of a TIGIT VHH bivalent antibody.
Jurkat cells stably expressing human TIGIT and NFAT reporter gene were established. Specifically, Jurkat cells were transfected with human TIGIT expression vector by electroporation, and cells stably expressing human TIGIT were selected by 1 μg/ml puromycin during cell culture. Representative antibody clones were incubated at different concentrations with h-TIGIT stably expressing Jurkat cells (0.2×10⁶/ml) in 100 μl/well in 96-well plate in FACS buffer (PBS with 1.5% FBS) for 30 min. After washing, Alexaflour 488 conjugated anti-human IgG Fc secondary antibody (Alexa Fluor® 488 AffiniPure Goat Anti-Human IgG, Fcγ fragment specific, Jackson labs, 1:500 dilution) was added and incubated for 30 min. After washing, mean fluorescence intensity was measured using CytoFlex (Beckman Coulter) by gating live cell population. Binding affinity was calculated using GraphPad Prism.

binding result [1]	binding result [2]	binding result [3]	EC50 (read off the curve); NFAT luciferase reporter (RLU), h-TIGIT/NFAT Jurkat cells with PVR Raji cells and SEE [4] [nM]	EC50 (read off the curve) [5] [nM]	EC50 (read off the curve) [6] [nM]	Binder
binds	binds	binds	–	–	–	B1
–	–	–	~1	~0.08	~0.1	B2
–	–	–	~0.8	~0.03	~0.04	B3
